biological target: T1, HLA-B*44:05 (human); assay: UV peptide exchange, anti-b2m ELISA
T1 construct: also called peptide-receptive MHC class I molecule
Summary of the method: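 Peptide-receptive HLA-B*44:05 monomers after UV-induced exchange were diluted 100-fold and captured on streptavidin-coated plates for 1 h at 37 °C. Bound complexes were detected with 2 µg/ml HRP-anti-β2m (1 h, 37 °C) and TMB, read at 450 nm. β2m signal reflects peptide-stabilized complex yield.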

Binder | peptide exchange yield [%]
EEHVYESIIRW | 50 to 75
EEYQDSFERY | 20 to 50
AEEGPSVPKIY | 50 to 75
EEAVRSVAF | 50 to 75
FETEQALRL | 50 to 75
AEQQQQQMY | 50 to 75
AELVGPVIPQDW | 50 to 75
AEVGDIIKVHF | 50 to 75
AEADLSYTWDF | 50 to 75
AELEGALQKA | 20 to 50
AESLFREAL | 50 to 75
EDNPSGHTY | 20 to 50
EEYAGQITL | 50 to 75
AEYSVHKITSTF | > 75
ALEEGGGYIF | 10 to 20
AEAEEAMKRL | 50 to 75
AEMLGSVVGNW | 50 to 75
AEEKAAVTSL | 50 to 75
DENIQKFIW | 50 to 75
EEAQWVRKYF | 50 to 75
ALSPVPSHW | 50 to 75
AEYSVHKI | 50 to 75
HEDPSGSLHL | 50 to 75
EEINELNRMI | 50 to 75
GEGTLRLSW | > 75
AELDSKILAL | 50 to 75
AEIEADRSYQ | 20 to 50
AENIKKFLY | 50 to 75
AEVTLNNTI | 50 to 75
AEVGDIIKV | 20 to 50

Second part, the binder after the results:

peptide exchange yield [%] | Binder
20 to 50 | SESMVESKF
50 to 75 | QEVGEITNL
50 to 75 | KEFGLDSVEL
50 to 75 | SESDLVNFI
20 to 50 | RLNEHPSNNW
> 75 | QELLDFTNW
50 to 75 | TEFSNHINL
50 to 75 | KEMDPSRQSY
> 75 | QESVHVASYYW
50 to 75 | MEVDPIGHVY
20 to 50 | TEGAVEVKY
50 to 75 | VEVGDRTDW
50 to 75 | SEATHIITI
20 to 50 | VEMTGKHQL
20 to 50 | RETEDYSKQAL
50 to 75 | REIENGNSF
50 to 75 | KEDNPSGHTY
> 75 | TEENGFWYL
20 to 50 | QEVAQVASA
> 75 | QEVAQVASAIL
> 75 | NEIDIHSIYF
50 to 75 | SELSLLSLY

peptide exchange yield [%] | Binder
50 to 75 | TEVHSSPAQRW
> 75 | RELARVVTL
> 75 | TEFHMQFSY
50 to 75 | SESKVFQLL
20 to 50 | SEYVHSSF
50 to 75 | SESPIRISV
50 to 75 | RENDFEPKF
50 to 75 | NEVDGEYRY
50 to 75 | SEYVHSSFSGF
50 to 75 | SESSSAFQF
50 to 75 | KEVDPASNTY
50 to 75 | TEDYSKQAL
> 75 | MEVDPIGHLYIF
50 to 75 | SESALQTVI
50 to 75 | TEAQRLDCW
20 to 50 | SELGLPKEV
50 to 75 | QEISAHRTEF
50 to 75 | REYEDGPLSL
10 to 20 | LETSCGSSTAY
50 to 75 | QETLAESTW
50 to 75 | KEAINLLKNY

Source: patent publication US20200087363A1 (IMMATICS BIOTECHNOLOGIES, published 2020)
